{"source": "paper PMC8034659", "assay_in_all_cases": "SPR", "key": {"[1]": {"molecular_target": "T1, TrfA R169E (plasmid RK2, UniProt P07676 98-382, R169E;G254D;S267L)", "T1 sequence": "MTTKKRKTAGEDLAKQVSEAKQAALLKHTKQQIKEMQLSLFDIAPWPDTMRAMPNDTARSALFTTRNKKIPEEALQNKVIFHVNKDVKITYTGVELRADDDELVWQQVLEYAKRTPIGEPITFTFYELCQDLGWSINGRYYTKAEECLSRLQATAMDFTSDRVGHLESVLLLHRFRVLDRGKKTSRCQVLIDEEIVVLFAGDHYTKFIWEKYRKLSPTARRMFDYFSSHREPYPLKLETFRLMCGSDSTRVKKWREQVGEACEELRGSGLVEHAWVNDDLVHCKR"}, "[2]": {"molecular_target": "T2, TrfA R236E (plasmid RK2, UniProt P07676 98-382, R236E;G254D;S267L)", "T2 sequence": "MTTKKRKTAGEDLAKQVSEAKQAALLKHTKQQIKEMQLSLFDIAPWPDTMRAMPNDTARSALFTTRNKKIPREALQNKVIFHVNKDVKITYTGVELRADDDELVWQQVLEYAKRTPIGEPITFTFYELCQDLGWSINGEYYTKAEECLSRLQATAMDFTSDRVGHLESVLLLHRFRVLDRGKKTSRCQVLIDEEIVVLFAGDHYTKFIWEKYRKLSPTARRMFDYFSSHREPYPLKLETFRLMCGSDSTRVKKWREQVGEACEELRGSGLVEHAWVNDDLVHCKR"}, "[3]": {"molecular_target": "T3, TrfA E361K (plasmid RK2, UniProt P07676 98-382, G254D;S267L;E361K)", "T3 sequence": "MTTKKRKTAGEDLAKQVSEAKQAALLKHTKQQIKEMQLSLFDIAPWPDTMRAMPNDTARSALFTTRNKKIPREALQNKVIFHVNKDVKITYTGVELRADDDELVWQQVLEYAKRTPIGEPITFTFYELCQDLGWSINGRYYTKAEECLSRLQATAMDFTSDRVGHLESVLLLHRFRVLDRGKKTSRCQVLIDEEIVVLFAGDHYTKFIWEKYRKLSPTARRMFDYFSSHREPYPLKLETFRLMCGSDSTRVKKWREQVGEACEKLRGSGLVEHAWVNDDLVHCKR"}, "[4]": {"molecular_target": "T4, TrfA R347E (plasmid RK2, UniProt P07676 98-382, G254D;S267L;R347E)", "T4 sequence": "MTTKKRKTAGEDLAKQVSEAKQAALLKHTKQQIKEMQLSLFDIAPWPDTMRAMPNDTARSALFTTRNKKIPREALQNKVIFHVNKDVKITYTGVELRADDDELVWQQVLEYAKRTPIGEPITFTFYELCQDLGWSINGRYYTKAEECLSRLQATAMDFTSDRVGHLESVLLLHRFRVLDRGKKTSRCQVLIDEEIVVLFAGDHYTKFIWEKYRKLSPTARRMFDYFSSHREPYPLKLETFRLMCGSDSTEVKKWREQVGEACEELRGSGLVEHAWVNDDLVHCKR"}, "[5]": {"molecular_target": "T5, TrfA N234E (plasmid RK2, UniProt P07676 98-382, N234E;G254D;S267L)", "T5 sequence": "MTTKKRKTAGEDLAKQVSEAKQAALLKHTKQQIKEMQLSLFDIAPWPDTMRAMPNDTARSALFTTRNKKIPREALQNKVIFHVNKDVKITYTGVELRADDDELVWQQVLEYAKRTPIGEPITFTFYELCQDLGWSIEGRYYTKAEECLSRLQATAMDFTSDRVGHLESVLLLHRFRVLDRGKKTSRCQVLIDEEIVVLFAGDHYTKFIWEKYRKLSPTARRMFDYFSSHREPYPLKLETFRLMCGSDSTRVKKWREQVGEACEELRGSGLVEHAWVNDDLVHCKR"}, "[6]": {"molecular_target": "T6, TrfA K165E (plasmid RK2, UniProt P07676 98-382, K165E;G254D;S267L)", "T6 sequence": "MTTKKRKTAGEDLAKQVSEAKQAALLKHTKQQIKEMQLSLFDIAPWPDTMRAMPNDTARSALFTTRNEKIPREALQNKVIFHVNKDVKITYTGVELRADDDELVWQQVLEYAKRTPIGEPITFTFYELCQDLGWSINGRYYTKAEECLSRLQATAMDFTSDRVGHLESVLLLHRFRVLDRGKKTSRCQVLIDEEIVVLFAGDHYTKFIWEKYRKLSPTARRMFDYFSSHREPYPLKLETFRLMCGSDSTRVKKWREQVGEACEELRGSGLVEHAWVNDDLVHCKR"}, "[7]": {"molecular_target": "T7, TrfA wt (G254D/S267L, 33 kDa) (plasmid RK2, UniProt P07676 98-382, G254D;S267L)", "T7 sequence": "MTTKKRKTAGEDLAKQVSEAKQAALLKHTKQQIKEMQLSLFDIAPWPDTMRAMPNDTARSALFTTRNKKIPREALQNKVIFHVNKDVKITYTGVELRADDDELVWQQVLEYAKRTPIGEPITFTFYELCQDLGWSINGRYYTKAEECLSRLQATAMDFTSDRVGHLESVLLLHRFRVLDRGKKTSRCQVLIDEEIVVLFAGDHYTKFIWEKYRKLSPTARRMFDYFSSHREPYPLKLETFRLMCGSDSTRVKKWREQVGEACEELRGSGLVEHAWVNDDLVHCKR"}}}
{"binder": "five RK2 iterons (ItT/ItB) (dsDNA) DNA 1: CCTGCGGTATTGACACTTGAGGGGCGCGACTACTGACAGATGAGGGGCGCGATCCTTGACACTTGAGGGGCAGAGTGATGACAGATGAGGGGCGCACCTATTGACATTTGAGGGGCTGTCCACAGGCAG DNA 2: CTGCCTGTGGACAGCCCCTCAAATGTCAATAGGTGCGCCCCTCATCTGTCATCACTCTGCCCCTCAAGTGTCAAGGATCGCGCCCCTCATCTGTCAGTAGTCGCGCCCCTCAAGTGTCAATACCGCAGG", "values": [{"measurement": "binding result", "setting": "[1]", "value": "no binding"}, {"measurement": "binding result", "setting": "[2]", "value": "no binding"}, {"measurement": "binding result", "setting": "[3]", "value": "binds"}, {"measurement": "binding result", "setting": "[4]", "value": "no binding"}, {"measurement": "binding result", "setting": "[5]", "value": "no binding"}, {"measurement": "binding result", "setting": "[6]", "value": "no binding"}, {"measurement": "binding result", "setting": "[7]", "value": "binds"}]}
